Test results from patent US20260232827A1 (Zymeworks, published 2026).

T1: human sodium-dependent phosphate transporter 2B (NaPi2b) (human, UniProt O95436 1-690)
T1 construct: UniProt ID is given as 095436 [sic]; also called hNaPi2b; Hu NaPi2b
T1 sequence: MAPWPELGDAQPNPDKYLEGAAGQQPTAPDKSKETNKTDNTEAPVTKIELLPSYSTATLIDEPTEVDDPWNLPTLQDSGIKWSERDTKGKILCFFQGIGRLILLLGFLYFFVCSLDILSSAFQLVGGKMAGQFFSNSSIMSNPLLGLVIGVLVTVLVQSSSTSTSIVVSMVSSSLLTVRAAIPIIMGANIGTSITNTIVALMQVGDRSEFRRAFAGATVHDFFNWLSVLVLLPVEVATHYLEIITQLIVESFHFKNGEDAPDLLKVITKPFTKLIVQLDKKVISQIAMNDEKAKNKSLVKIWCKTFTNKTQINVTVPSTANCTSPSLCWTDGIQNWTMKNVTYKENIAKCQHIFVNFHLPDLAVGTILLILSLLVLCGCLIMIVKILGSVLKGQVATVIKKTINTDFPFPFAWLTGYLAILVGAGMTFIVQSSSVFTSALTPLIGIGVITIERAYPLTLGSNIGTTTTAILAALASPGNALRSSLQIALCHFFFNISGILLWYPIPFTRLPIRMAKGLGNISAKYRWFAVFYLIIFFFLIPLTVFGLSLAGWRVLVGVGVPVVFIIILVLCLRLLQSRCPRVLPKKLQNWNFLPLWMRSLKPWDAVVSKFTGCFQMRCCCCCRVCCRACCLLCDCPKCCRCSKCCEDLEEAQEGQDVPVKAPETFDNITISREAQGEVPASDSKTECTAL

T2: mouse NaPi2b (mouse, UniProt Q9DBP0 1-697)
T2 construct: also called Ms NaPi2b; CL #13476
T2 sequence: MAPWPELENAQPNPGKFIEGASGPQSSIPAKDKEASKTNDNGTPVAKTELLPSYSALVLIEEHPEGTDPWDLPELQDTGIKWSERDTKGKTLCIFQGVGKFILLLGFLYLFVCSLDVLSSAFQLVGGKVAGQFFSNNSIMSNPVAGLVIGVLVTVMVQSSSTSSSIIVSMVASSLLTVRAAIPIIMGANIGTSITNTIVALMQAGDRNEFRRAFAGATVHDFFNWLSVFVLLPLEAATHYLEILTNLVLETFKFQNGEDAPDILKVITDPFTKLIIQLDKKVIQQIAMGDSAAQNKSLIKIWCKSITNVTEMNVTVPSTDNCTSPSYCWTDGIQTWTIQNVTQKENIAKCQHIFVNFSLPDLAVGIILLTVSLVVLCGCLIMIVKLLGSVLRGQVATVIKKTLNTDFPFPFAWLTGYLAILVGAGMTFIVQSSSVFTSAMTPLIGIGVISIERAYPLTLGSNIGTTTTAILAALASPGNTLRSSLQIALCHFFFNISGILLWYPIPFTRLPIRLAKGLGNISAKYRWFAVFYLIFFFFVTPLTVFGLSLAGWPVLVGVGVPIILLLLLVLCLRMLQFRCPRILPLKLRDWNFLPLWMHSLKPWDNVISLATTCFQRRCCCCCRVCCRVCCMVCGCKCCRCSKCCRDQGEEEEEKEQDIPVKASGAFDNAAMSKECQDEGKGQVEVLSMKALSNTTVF

T3: cynomolgus monkey NaPi2b (cynomolgus monkey, UniProt O95436 1-690 (human entry))
T3 construct: also called Cyno NaPi2b; Cy NaPi2b
T3 chain: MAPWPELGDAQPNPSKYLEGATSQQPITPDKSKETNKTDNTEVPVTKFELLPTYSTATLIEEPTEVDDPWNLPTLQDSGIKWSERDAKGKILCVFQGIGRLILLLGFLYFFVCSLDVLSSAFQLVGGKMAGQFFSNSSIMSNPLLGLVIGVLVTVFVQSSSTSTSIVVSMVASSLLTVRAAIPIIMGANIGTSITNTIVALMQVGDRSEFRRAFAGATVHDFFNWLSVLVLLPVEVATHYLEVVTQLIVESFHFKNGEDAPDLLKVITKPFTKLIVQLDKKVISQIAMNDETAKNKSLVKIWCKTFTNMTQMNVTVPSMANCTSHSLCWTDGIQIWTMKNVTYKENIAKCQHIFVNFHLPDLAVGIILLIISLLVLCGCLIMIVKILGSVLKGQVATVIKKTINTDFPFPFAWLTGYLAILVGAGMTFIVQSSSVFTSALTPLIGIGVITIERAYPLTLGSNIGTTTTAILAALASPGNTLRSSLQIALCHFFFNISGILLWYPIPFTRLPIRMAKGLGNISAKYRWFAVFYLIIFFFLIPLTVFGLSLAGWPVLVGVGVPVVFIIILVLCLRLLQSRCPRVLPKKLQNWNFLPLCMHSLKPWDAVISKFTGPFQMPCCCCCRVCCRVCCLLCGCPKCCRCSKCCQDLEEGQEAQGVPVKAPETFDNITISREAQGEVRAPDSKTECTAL

B1: v23855 (parental mouse-human chimeric anti-NaPi2b antibody) (antibody, human IgG1, kappa, V domains shown)
VH: QAYLQQSGAELVRPGASVKMSCKASGFTFTSYNVHWVKQTPRQGLEWIAAISPGNGDLSYNQRFKDKATLTVDRSSSTAYMQLSGLTSEDSAVYFCARGRTGMGAVDYWGQGTSVTVSS
VL: DVQMTQTASSLSASLGDRVTISCRASQDVYSYLNWYQQKPHGTVKLLIYYTSRLQSGVPSRFTGSGSGTDYSLTISNLEPEDIATYYCQQYNIFPWTFGGGTKLEIKR
notes: IgG1/kappa full-size antibody; also called parental chimeric
B2: v29452 (H1L3) (antibody, human IgG1, kappa, V domains shown)
VH: QVQLVQSGAEVKKPGASVKVSCKASGFTFTSYNVHWVRQAPGQGLEWMGAISPGNGDLSYAQKFQGRVTMTRDTSTSTVYMELSSLRSEDTAVYYCARGRTGMGAVDYWGQGTLVTVSS
VL: DVQMTQSPSSLSASVGDRVTITCRASQDVYSYLNWYQQKPGKAVKLLIYYTSRLQSGVPSRFSGSGSGTDYTLTISSLQPEDIATYYCQQYNIFPWTFGQGTKLEIKR
notes: Humanized IgG1/kappa
B3: v38591-MC-GGFG-AM-Compound 139 DAR 8 (antibody, human IgG1, kappa)
heavy: not shown
light: DVQMTQSPSSLSASVGDRVTITCRASQDVYSYLNWYQQKPGKAVKLLIYYTSRLQSGVPSRFSGSGSGTDYTLTISSLQPEDFATYYCQQYNIFPWTFGQGTKLEIKRTVAAPSVFIFPPSDEQLKSGTASVVCLLNNFYPREAKVQWKVDNALQSGNSQESVTEQDSKDSTYSLSSTLTLSKADYEKHKVYACEVTHQGLSSPVTKSFNRGEC
modifications: as above; MC-GGFG-AM-Compound 139 drug-linker on cysteines freed by TCEP reduction; sites not stated; DAR 8
notes: Antibody-drug conjugate of v38591; also called v38593
B4: v38591-MC-GGFG-AM-Compound 139 DAR 4 (antibody, human IgG1, kappa)
heavy: not shown
light: DVQMTQSPSSLSASVGDRVTITCRASQDVYSYLNWYQQKPGKAVKLLIYYTSRLQSGVPSRFSGSGSGTDYTLTISSLQPEDFATYYCQQYNIFPWTFGQGTKLEIKRTVAAPSVFIFPPSDEQLKSGTASVVCLLNNFYPREAKVQWKVDNALQSGNSQESVTEQDSKDSTYSLSSTLTLSKADYEKHKVYACEVTHQGLSSPVTKSFNRGEC
modifications: as above; MC-GGFG-AM-Compound 139 drug-linker on cysteines freed by TCEP reduction; sites not stated; DAR 4
notes: Antibody-drug conjugate of v38591
B5: v18992 (MX35)-DL2 (antibody, human IgG1, kappa)
heavy 1: GQVQLVQSGAEVVKPGASVKMSCKASGYTFTGYNIHWVKQAPGQGLEWIGAIYPGNGDTSYKQKFRGRATLTADTSTSTVYMELSSLRSEDSAVYYCARGETARATFAYWGQGTLVTVSSASTKGPSVFPLAPSSKSTSGGTAALGCLVKDYFPEPVTVSWNSGALTSGVHTFPAVLQSSGLYSLSSVVTVPSSSLGTQTYICNVNHKPSNTKVDKKVEPKSCDKTHTCPPCPAPELLGGPSVFLFPPKPKDTLMISRTPEVTCVVVDVSHEDPEVKFNWYVDGVEVHNAKTKPREEQYNSTYRVVSVLTVLHQDWLNGKEYKCKVSNKALPAPIEKTISKAKGQPREPQVYVYPPSRDELTKNQVSLTCLVKGFYPSDIAVEWESNGQPENNYKTTPPVLDSDGSFALVSKLTVDKSRWQQGNVFSCSVMHEALHNHYTQKSLSLSPG
heavy 2: not shown
light: GDIQMTQSPSSLSASVGDRVTITCSASQDIGNFLNWYQQKPGKTVKVLIYYTSSLYSGVPSRFSGSGSGTDYTLTISSLQPEDFATYYCQQYSKLPLTFGQGTKLELKRTVAAPSVFIFPPSDEQLKSGTASVVCLLNNFYPREAKVQWKVDNALQSGNSQESVTEQDSKDSTYSLSSTLTLSKADYEKHKVYACEVTHQGLSSPVTKSFNRGEC
modifications: as above; maleimide functionalized auristatin drug linker (DL2); sites and DAR not stated
notes: also called MX35-DL2 ADC

Columns and labels:
[1] = biological target: T1, human sodium-dependent phosphate …; assay: flow cytometry on IGROV-1 cells (endogenous NaPi2b), 24 h at 4 C, anti-human IgG Fc AF647
Protocol: (§1) Briefly, cells were seeded at 50,000 cells/well in conical-bottom 96-well plates and treated with test antibody for 24 hours at 4° C. to prevent internalization. […] Following incubation and washing, fluorescence was detected by flow cytometry on a BD LSRFortessa™ Cell Analyzer (BD Biosciences, Franklin Lake, NJ) with 1,000 minimum events collected per well.

[2] = biological target: T1, human sodium-dependent phosphate …; assay: flow cytometry, IGROV-1 cells (endogenous NaPi2b); design: unit not given here
[3] = biological target: T1, human sodium-dependent phosphate …; assay: flow cytometry, IGROV-1 cells (endogenous NaPi2b); apparent Kd
Protocol: as §1

[4] = biological target: T4, KLH (Sigma-Aldrich, H8283); assay: non-specific ELISA, KLH coated, antibody 100 nM
T4 construct: Coating of the non-specific ELISA
Protocol: NS-ELISA was used to measure the propensity of the antibodies to bind to a range of biomolecules to emulate the undesirable non-specific interactions to biological matrices in vivo as described below.
NS-ELISA was carried out in Corning® 96-well EIA/RIA Easy Wash™ Clear Flat Bottom Polystyrene High Bind Microplate coated overnight at 4° C. with 50 μL of Heparin (Sigma, H3149) diluted with 50 mM sodium carbonate pH 9.6 to a final concentration of 250 μg/mL. The plate was incubated for 2 days at room temperature, wells that were coated with heparin were not covered to allow air dry. […] 50 μL each of insulin, KLH, dsDNA and ssDNA were added to a 96 well plate, followed by the incubation at 37° C. for 2 h. The coating materials were removed, and the plate was blocked with 200 μL of Gibco™ PBS pH7.4, 0.1% Tween®20, and incubated for 1 h at room temperature with shaking at 200 rpm. The plate was washed 3 times with Gibco™ PBS pH7.4, 0.1% Tween 20. 50 μL of each mAb at 100 nM (15 mg/mL) in Gibco™ PBS pH 7.4, 0.1% Tween®20 was added in duplicate to the wells and incubated for 1 h at room temperature with shaking at 200 rpm. […] Plates were incubated for 1 h at room temperature, with shaking at 200 rpm. The plate was washed three times with Gibco™ PBS pH7.4, 0.1% Tween 20, and 100 μL of TMB substrate (Cell Signaling Technology©, 7004P6) added to each well. […] Binding scores were calculated as the ratio of the ELISA signal of the antibody to the signal of a well containing buffer instead of the primary antibody.

[5] = biological target: T1, human sodium-dependent phosphate …; assay: flow cytometry on OVCAR-3 cells (endogenous NaPi2b), 24 h at 4 C, anti-human IgG Fc AF647
Protocol: (§2) Following incubation and washing, fluorescence was detected by flow cytometry on a BD LSRFortessa™ Cell Analyzer (BD Biosciences, Franklin Lake, NJ) with 1,000 minimum events collected per well.

[6] = biological target: T1, human sodium-dependent phosphate …; assay: flow cytometry on IGROV-1 cells (endogenous NaPi2b), 24 h at 4 C, anti-human IgG Fc AF647; remark: listed apart in the source
Protocol: as §2

mouse NaPi2b = biological target: T2, mouse NaPi2b; assay: flow cytometry on HEK293-6e cells transfected with mouse NaPi2b, 24 h at 4 C, anti-human IgG Fc AF647
Protocol: (§3) Following transfection, cells were seeded at 50,000 cells/well in conical-bottom 96-well plates and treated with test antibody or antibody-drug conjugate for 24 hours at 4° C. to prevent internalization. […] Following incubation and washing, fluorescence was detected by flow cytometry on a BD LSRFortessa™ Cell Analyzer (BD Biosciences, Franklin Lake, NJ) with 1,000 minimum events collected per well.

cynomolgus monkey NaPi2b = biological target: T3, cynomolgus monkey NaPi2b; assay: flow cytometry on HEK293-6e cells transfected with cynomolgus monkey NaPi2b, 24 h at 4 C, anti-human IgG Fc AF647
Protocol: as §3

[7] = biological target: T1, human sodium-dependent phosphate …; assay: flow cytometry on HCC-78 cells (endogenous NaPi2b), 24 h at 4 C, anti-human IgG Fc AF647, APC-A GeoMean
Protocol: (§4) Cells were maintained under standard culture conditions (37° C./5% CO₂) until assay set-up. […] Cells were removed from culture vessels using Cell Dissociation Buffer (Invitrogen, Waltham, MA), seeded at 50,000 cells/well in conical-bottom 96-well plates, and treated with test antibody or antibody-drug conjugate for 24 hours at 4° C. to prevent internalization. […] Following incubation and washing, fluorescence was detected by flow cytometry on a BD LSRFortessa™ Cell Analyzer (BD Biosciences, Franklin Lake, NJ) with 1,000 minimum events collected per well.

[8] = biological target: T1, human sodium-dependent phosphate …; assay: flow cytometry on IGROV-1 cells (endogenous NaPi2b), 24 h at 4 C, anti-human IgG Fc AF647, APC-A GeoMean
[9] = biological target: T1, human sodium-dependent phosphate …; assay: flow cytometry on H441 cells (endogenous NaPi2b), 24 h at 4 C, anti-human IgG Fc AF647, APC-A GeoMean
Protocol: as §4

| Binder | EC50 (read off the curve) [1] [nM] | Bmax [2] | Kd [3] [nM] | NS-ELISA binding score (signal over buffer well) [4] | EC50 (read off the curve) [5] [nM] | EC50 (read off the curve) [6] [nM] | EC50 (read off the curve) (mouse NaPi2b) [nM] | EC50 (read off the curve) (cynomolgus monkey NaPi2b) [nM] | EC50 (read off the curve) [7] [nM] | EC50 (read off the curve) [8] [nM] | EC50 (read off the curve) [9] [nM] |
| --- | --- | --- | --- | --- | --- | --- | --- | --- | --- | --- | --- |
| B1 | ~0.8 | 43700 | 0.84 | 2.38 | – | – | – | – | – | – | – |
| B2 | – | 47800 | 1.6 | 1.34 | – | – | – | – | – | – | – |
| B3 | – | – | – | – | ~3 | ~2 | ~0.6 | ~0.5 | – | – | – |
| B4 | – | – | – | – | 2 to 3 | ~2 | – | ~0.4 | ~3 | ~2 | ~0.6 |
| B5 | 1 to 1.7 | 41200 | 1.22 | – | – | – | – | – | – | – | – |
